Test results: patent US20190309044A1, “POLYPEPTIDES AND USES THEREOF AS A DRUG FOR TREATMENT OF AUTOIMMUNE DISORDERS” (Compugen Ltd., priority 2017, published 2019)

How the values were obtained:
Type in all cases: in vivo, mouse
[1] = tested on: healthy human skin transplanted onto beige-SCID mice; assay: Humanized psoriasis model, human skin xenografts on beige-SCID mice; conditions: IHC; vs PBS
From the text: In this model, psoriasis is induced in xenotransplants of healthy human skin transplanted onto beige severe combined immunodeficiency (SCID) mice followed by intradermal (i.d.) injection of IL-2 enriched Peripheral Blood Mononuclear Cells (PBMCs) isolated from blood of psoriasis patients (Nickoloff, 1995; Wrone-Smith, 1996 Gilhar et al., 2002, 2006, 2011). The activity of these compounds was compared to that of Enbrel, a TNF inhibitor which is an approved biological drug for treatment of psoriasis. As a control for model robustness, we used dexamethasone, a steroid with suppressive effects on inflammatory cytokines and chemokines such as TNF-alpha and interferon-gamma which cause severe psoriasis. All treatments were administered intradermally, except for dexamethasone which was given topically.
2.2. Study Protocol A) Healthy human skin pieces with a width of 0.4 mm and surface area of 1.5×1.5 cm were provided from residual skin of routine plastic surgery procedures from the Plastic Surgery Department of the Rambam Medical Center, Israel. In addition, 20 mL blood samples were taken from psoriatic patients. B) Seventy (70) beige-severe combined immunodeficient mice (SCID) (weight ˜20-25 g) were included in this study. Normal healthy human donor skin was transplanted onto the beige-SCID mice as previously described (Nickoloff et al., 1995; Wrone-Smith, 1996; Gilhar et al., 2002, 2006, 2011; Kalish et al., 2009) and the mice were divided into 7 groups. C) Peripheral Blood Mononuclear Cells (PBMCs) isolated from psoriatic patients' blood were cultured in the presence of IL-2 [Prospec, 100 U/mL of RPMI 1640 media, 10% human AB serum (Sigma, St. Louis, Mo.), 1% glutamine, 1% antibiotics (media components; Biological Industries, Kibbutz Beit Haemeck, Israel)] for 14 days, as previously described (Gilhar et al, 2002). D) Four weeks following engraftment, each mouse was injected intra-dermally (i.d.) into the grafted skin lesion, with 1×10^7 activated allogeneic enriched PBMCs from psoriatic patients (FIG. 20). Cells from different psoriasis patients were equally distributed between treatment groups so that each patient is represented in each treatment group. E) On the day of PBMCs injection into the skin grafts, mice were divided randomly into treatment groups (n=9-10 mice per group) and administration of all drugs started (FIG. 20). All tested compounds including the vehicle were given intradermally (intralesional), three times a week, except for dexamethasone which was given topically for 14 consecutive days (Table 3).
F) Twenty eight days after starting the injections and treatment, skin was harvested (FIG. 20). Grafts were analyzed for the following psoriatic parameters by histology: epidermal thickening (acanthosis), suprapapillary epidermal thinning (papillomatosis), hyperkeratosis, parakeratosis, orthokeratosis, agranulosis-hypogranulosis, appearance of neutrophils in the upper spinous layer or in the corneal cell layer—Munro microabscess, regular elongation of rete ridges, angiogenesis, edema and dilated tortuous blood vessels in the dermal papilla and mononuclear cell infiltrate in the papillary dermis. Epidermal thickness was measured as detailed below, and HLA-DR, ICAM-1, Ki-67 and immune infiltrates (anti-CD3 stain) were evaluated by immunohistochemistry (IHC).
The entire skin graft was excised and placed in 10% formal saline overnight. Then, the specimens were place in 70% ethanol and were embedded according to the standard H&E protocol. Histological assessment of the skin grafts was performed by light microscopy and evaluated by two blinded observers [the second observer evaluated random slides (about 25% of all slides) to compare the data obtained by the first observer. […] Epidermal thickness was determined with an ocular micrometer at a minimum of 50 points along the epidermis selected to represent points of maximal and minimal thickness.
Representative grafts were allocated for IHC analysis. […]

SJL/J mice = assay: PLP139-151/CFA R-EAE upon IL-10 or TGFb blockade, clinical score
Experimental: SJL/J mice were purchased from Harlan and primed with PLP139-151/CFA per the standard protocol, as described in 21.1.2 Methods, above). At disease remission the mice were split into 6 different treatment groups (n=5) as follows:
Mice were treated with Control Ig (mouse IgG2a) or C1ORF32 ECD-Fc (SEQ ID NO:42) at 100 ug/dose, each via an i.p. injection. This was followed with a second i.p. injection on the same day of either anti-IL-10 (rat IgG1), rat IgG1 (control Ab), or anti-TGFβ (mouse IgG1) at 100 ug/dose, each. All treatments were given 3×/wk for 2 wks, beginning on day +20 (onset of disease remission) and until day +31 post disease induction. All mice were followed for disease scores until day 44 post disease induction. On day 44, mice were sacrificed and analyzed for total T cell and Treg cell numbers in spleen and CNS. […]
Mice were followed for disease and scored on a 0-5 scale per standard lab protocol as follows: 0, no abnormality; 1, limp tail; 2, limp tail and hind limb weakness; 3, hind limb paralysis; 4, hind limb paralysis and forelimb weakness; and 5, moribund. Dead mice were scored with a score of 5 on the day of death only, and were not further scored on the next days.

[2] = tested on: total splenocytes and lymph node cells; assay: Ex vivo recall responses, adoptive transfer R-EAE; conditions: day 45; treatment from onset of remission
Experimental: On day 45 (unless otherwise indicated) following cell transfer, spleen and cervical lymph nodes or CNS from 3 representative mice of each group were collected, and the total cells were activated ex vivo at 0.5×10^6 cells per well with either OVA323-339, PLP139-151, PLP178-191, MBP84-104 (20 ug/ml), or anti-CD3 (1 ug/ml). Two sets of cultures were set up side-by-side. One set was pulsed with 1uCi of tritiated thymidine at 24 hours and harvested at 72 hours to determine cell proliferation. In the second set of cultures, supernatants were collected at 72 hours and tested for peptide-specific cytokine production as determined by LiquiChip.

B1: C1ORF32 ECD-Fc (SEQ ID NO:42): human-mouse fusion protein: human C1ORF32 ECD fused to mouse immunoglobulin Fc (SEQ ID NO:42) (protein)
chain: LQVTVPDKKKVAMLFQPTVLRCHFSTSSHQPAVVQWKFKSYCQDRMGESLGMSSTRAQSLSKRNLEWDPYLDCLDSRRTVRVVASKQGSTVTLGDFYRGREITIVHDADLQIGKLMWGDSGLYYCIITTPDDLEGKNEDSVELLVLGRTGLLADLLPSFAVEIMGSENLYFQGSGEPRGPTIKPCPPCKCPAPNLLGGPSVFIFPPKIKDVLMISLSPIVTCVVVDVSEDDPDVQISWFVNNVEVHTAQTQTHREDYNSTLRVVSALPIQHQDWMSGKEFKCKVNNKDLPAPIERTISKPKGSVRAPQVYVLPPPEEEMTKKQVTLTCMVTDFMPEDIYVEWTNNGKTELNYKNTEPVLDSDGSYFMYSKLRVEKKNWVERNSYSCSVVHEGLHNHHTTKSFSRTPGK
modifications: Fusion protein human C1ORF32-ECD fused to mouse IgG2a Fc
infiltration of T cells (CD3 positive cells) [1]: significant reduction
beneficial effect on disease (SJL/J mice; concomitant administration of anti-IL-10): abrogated the beneficial effect
beneficial effect on disease (SJL/J mice; concomitant administration of anti-TGF): abrogated the beneficial effect
recall responses, cellular proliferation of splenocytes and lymph node cells [2]: decreased level of cellular proliferation
